Data: patent US20140175018A1 (published 2014)
Blank lines part the entries; values can stand above or below the binder they belong to. Bridge positions count the residues as written; N and C are the ends. Square brackets hold non-standard residues; d marks the D form. Side chains are listed from the residue outwards. * marks the point of attachment. Biotin = O=C1N[C@H]2[C@H](CS[C@H]2CCCCC(=O)*)N1; pGlu = O=C1CC[C@@H](C(=O)O)N1; Nle = CCCC[C@H](N)C(=O)O; PEG = not defined here

Key:
[1] = molecular target: T1, chemokine (C-C motif) receptor 9 (CCR9) (human, UniProt P51686 1-369); assay: cell-based or functional assay
T1 sequence (looked up): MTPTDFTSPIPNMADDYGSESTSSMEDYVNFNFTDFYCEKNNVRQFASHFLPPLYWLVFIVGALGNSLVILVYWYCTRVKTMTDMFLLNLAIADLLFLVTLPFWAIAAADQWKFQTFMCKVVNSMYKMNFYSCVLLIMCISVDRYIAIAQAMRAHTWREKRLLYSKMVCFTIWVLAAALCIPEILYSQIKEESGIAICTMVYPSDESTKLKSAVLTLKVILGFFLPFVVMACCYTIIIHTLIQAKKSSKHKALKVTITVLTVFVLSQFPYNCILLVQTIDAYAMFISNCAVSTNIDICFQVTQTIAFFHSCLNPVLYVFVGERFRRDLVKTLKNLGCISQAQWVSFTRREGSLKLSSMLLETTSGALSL

[2] = molecular target: T2, hCCR2b (human, UniProt P41597 1-374); assay: cell-based or functional assay
T2 chain: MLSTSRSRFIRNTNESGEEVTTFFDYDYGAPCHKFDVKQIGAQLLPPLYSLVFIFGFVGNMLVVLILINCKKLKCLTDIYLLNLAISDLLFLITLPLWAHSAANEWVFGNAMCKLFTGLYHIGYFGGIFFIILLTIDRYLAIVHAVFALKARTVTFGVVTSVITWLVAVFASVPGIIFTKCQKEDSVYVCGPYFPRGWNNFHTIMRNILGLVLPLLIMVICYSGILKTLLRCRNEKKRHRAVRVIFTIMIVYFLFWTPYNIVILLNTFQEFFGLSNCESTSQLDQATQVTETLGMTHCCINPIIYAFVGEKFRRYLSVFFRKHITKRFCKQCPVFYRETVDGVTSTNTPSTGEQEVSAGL

[3] = molecular target: T1, chemokine (C-C motif) receptor 9 (CCR9); assay: flow cytometry; labelled chemokine on fixed blood leukocytes
[4] = molecular target: T3, chemokine (C-C motif) receptor 4 (CCR4) (human, UniProt P51679 1-360); assay: cell-based or functional assay
T3 sequence (looked up): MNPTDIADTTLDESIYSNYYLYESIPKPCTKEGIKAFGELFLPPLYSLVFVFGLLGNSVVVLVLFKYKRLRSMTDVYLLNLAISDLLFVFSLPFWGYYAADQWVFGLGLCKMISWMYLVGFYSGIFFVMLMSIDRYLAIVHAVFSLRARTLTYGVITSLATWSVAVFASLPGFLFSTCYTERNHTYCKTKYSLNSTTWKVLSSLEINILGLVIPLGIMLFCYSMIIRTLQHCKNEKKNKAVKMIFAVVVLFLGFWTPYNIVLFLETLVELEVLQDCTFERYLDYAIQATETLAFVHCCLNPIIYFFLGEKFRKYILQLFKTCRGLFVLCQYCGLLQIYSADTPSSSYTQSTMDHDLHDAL

[5] = molecular target: T4, chemokine (C-C motif) receptor 3 (CCR3) (human, UniProt P51677 1-355); assay: flow cytometry; eotaxin binding compared with anti-CCR3 staining of neutrophils/eosinophils
T4 construct: whole, on cells; also called hCCR3
T4 sequence (looked up): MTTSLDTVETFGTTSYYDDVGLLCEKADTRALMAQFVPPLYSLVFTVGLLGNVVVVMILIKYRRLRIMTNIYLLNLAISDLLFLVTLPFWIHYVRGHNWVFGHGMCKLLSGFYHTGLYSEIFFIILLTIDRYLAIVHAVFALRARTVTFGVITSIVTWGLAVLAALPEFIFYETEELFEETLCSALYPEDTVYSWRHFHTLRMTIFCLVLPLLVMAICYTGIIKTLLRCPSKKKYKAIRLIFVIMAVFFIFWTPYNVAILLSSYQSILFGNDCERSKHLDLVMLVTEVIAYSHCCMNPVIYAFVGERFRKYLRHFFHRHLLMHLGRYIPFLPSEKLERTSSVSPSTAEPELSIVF

[6] = molecular target: T5, chemokine (C-C motif) receptor 5 (CCR5) (human, UniProt P51681 1-352); assay: cell-based or functional assay
T5 sequence (P51681 whole entry): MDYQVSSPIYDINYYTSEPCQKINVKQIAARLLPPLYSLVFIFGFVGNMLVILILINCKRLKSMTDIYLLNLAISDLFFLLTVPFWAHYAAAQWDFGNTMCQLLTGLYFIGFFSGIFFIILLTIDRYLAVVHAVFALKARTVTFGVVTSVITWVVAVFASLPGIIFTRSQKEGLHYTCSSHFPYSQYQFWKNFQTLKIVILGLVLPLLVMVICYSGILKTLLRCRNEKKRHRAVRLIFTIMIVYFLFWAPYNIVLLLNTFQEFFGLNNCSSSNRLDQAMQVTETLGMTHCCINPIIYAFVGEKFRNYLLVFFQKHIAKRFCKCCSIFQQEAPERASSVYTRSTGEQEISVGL

[7] = molecular target: T5, chemokine (C-C motif) receptor 5 (CCR5); assay: blood passed through chemokine-coupled column; flow cytometry before and after
[8] = molecular target: T6, chemokine (C-C motif) receptor 1 (CCR1) (human, UniProt P32246 1-355); assay: as above
T6 construct: whole, on cells
T6 sequence (looked up): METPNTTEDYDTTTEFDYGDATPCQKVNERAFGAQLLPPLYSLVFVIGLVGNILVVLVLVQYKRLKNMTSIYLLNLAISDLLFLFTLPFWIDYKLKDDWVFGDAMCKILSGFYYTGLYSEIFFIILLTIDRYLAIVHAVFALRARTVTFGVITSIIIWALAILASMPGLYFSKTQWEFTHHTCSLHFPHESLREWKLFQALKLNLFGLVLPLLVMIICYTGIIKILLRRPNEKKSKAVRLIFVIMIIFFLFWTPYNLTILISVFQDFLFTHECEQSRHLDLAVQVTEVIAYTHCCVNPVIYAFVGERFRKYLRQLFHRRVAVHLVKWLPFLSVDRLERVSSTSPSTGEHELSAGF

[9] = molecular target: T7, chemokine (C-C motif) receptor 7 (CCR7) (human, UniProt P32248 25-378); assay: cell-based or functional assay
T7 sequence (looked up): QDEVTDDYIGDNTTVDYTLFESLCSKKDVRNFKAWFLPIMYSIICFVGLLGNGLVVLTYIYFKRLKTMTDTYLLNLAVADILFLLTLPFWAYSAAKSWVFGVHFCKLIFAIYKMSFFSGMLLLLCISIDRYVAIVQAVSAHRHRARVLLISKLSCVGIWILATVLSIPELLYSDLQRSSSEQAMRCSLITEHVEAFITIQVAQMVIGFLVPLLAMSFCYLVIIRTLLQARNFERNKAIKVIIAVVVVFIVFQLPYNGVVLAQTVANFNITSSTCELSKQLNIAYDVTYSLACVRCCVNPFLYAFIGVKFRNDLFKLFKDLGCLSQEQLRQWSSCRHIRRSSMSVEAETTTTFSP

B3: Biotinylated CCL25 (Almac Sciences) (ligand, UniProt O15444 24-97, looked up)
chain: QGVFEDCCLAYHYPIGWAVLRRAWTYRIQEVSGSCNLPAAIFYLPKRHRKVCGNPKSREVQRAMKLLDARNKVF
modifications: biotinylated (site not stated); for the flow cytometry tests also Alexa647 Fluor labeled
notes: also called biotinylated and Alexa647 Fluor labeled CCL25; CCL25-coated sepharose beads
percent of CD4+ lymphocytes bound (Crohn's patient) [3]: ~90% | percent of CD8+ lymphocytes bound (Crohn's patient) [3]: ~80% | percent of monocytes bound (Crohn's patient) [3]: ~90%

B4: biotinMDC (CCL22): MDC derivatised at Lys(66) with PEG-Biotin (ligand)
chain: GPYGANMEDSVCCRDYVRYRLPLRVVKHFYWTSDSCPRPGVVLLTFRDKEICADPRVPWVKMILNK([PEG-Biotin])LSQ-NH2
modifications: disulfide 12-36, 13-52; reading uncertain
EC50 (agonist activity, Aequorin assay) [4]: 0.0045 µM

B5: biotinylated and Alexa647 Fluor labeled eotaxin (Almac Sciences) (ligand)
chain: not shown
modifications: biotinylated and Alexa647 Fluor labeled (sites not given)
binding result [5]: binds

B6: biotinRANTES (CCL5): RANTES derivatised at Lys(67) with Biotin (ligand)
chain: SPYSSDTTPCCFAYIARPLPRAHIKEYFYTSGKCSNPAVVFVTRKNRQVCANPEKKWVREYINSLEK(Biotin)S-OH
modifications: disulfide 10-34, 11-50
notes: also called bRANTES; biotinylated RANTES
EC50 (agonist activity, Aequorin assay) [6]: 0.0005 µM | percent reduction of chemokine receptor-expressing cells (CCR1, 3 or 5, not told apart) [7]: ~20% | percent reduction of chemokine receptor-expressing cells (CCR1, 3 or 5, not told apart) [8]: ~20%

B7: biotinMIP-3b (CCL19): MIP-3b derivatised at Lys(78) with Biotin (ligand)
chain: GTNDAEDCCLSVTQKPIPGYIVRNFHYLLIKDGCRVPAVVFTTLRGRQLCAPPDQPWVERIIQRLQRTSAKMKRRSSX
modifications: X78 = K(Biotin), an additional C-terminal lysine; C-terminal amide
EC50 (agonist activity, Aequorin assay) [9]: 0.011 µM

Now from value to binder:

EC50 (agonist activity, Aequorin assay) [1]: 0.0636 µM
B1: biotinTECK (Met to Nleu substitution): TECK derivatised at the epsilon-amino side chain of Lys72 with PEG-Biotin (ligand)
chain: [pGlu]GVFEDCCLAYHYPIGWAVLRRAWTYRIQEVSGSCNLPAAIFYLPKRHRKVCGNPKSREVQRA[Nle]KLLDARNK([PEG-Biotin])VF-OH
modifications: disulfide 7-35, 8-52; reading uncertain

EC50 (partial agonist, Aequorin assay) [2]: 0.0235 µM
B2: recombinant native MCP-2 (ligand, UniProt P80075 24-99, looked up)
chain: QPDSVSIPITCCFNVINRKIPIQRLESYTRITNIQCPKEAVIFKTKRGKEVCADPKERWVRDSMKHLDQIFQNLKP
